Reference: article PMC12416549 (2024)

Target: T1, TNFR1 (Homo sapiens, UniProt P19438)
T1 chain: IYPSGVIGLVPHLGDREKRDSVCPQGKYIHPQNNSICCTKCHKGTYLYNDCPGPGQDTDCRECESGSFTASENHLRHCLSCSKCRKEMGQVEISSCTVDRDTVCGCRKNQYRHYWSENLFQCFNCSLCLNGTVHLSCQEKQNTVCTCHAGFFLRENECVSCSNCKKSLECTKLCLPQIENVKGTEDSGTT
Assay: yeast display SC50

B1: E19T (designed binder)
chain: SMEEEVEKAAKEYEKKKKTAIEKHLEKLKAKDKEAAERFLKELEEAAKEYAKDEAKTMSEEEAKRRAKKYKEKVLLSELSEEEQKEIKEAEEKLVRTILKYVEEAAK
apparent Kd (screen): 0.49 nM

B2: K31P (designed binder)
chain: SMEEEVEKAAKEYEKKKKEAIEKHLEKLKAPDKEAAERFLKELEEAAKEYAKDEAKTMSEEEAKRRAKKYKEKVLLSELSEEEQKEIKEAEEKLVRTILKYVEEAAK
apparent Kd (screen): 3 nM

B3: H24W (designed binder)
chain: SMEEEVEKAAKEYEKKKKEAIEKWLEKLKAKDKEAAERFLKELEEAAKEYAKDEAKTMSEEEAKRRAKKYKEKVLLSELSEEEQKEIKEAEEKLVRTILKYVEEAAK
apparent Kd (screen): 0.869 nM

B4: T97S (designed binder)
chain: SMEEEVEKAAKEYEKKKKEAIEKHLEKLKAKDKEAAERFLKELEEAAKEYAKDEAKTMSEEEAKRRAKKYKEKVLLSELSEEEQKEIKEAEEKLVRSILKYVEEAAK
apparent Kd (screen): 2.25 nM

B5: E45C (designed binder)
chain: SMEEEVEKAAKEYEKKKKEAIEKHLEKLKAKDKEAAERFLKELECAAKEYAKDEAKTMSEEEAKRRAKKYKEKVLLSELSEEEQKEIKEAEEKLVRTILKYVEEAAK
apparent Kd (screen): 1.27 nM

B6: Y101N (designed binder)
chain: SMEEEVEKAAKEYEKKKKEAIEKHLEKLKAKDKEAAERFLKELEEAAKEYAKDEAKTMSEEEAKRRAKKYKEKVLLSELSEEEQKEIKEAEEKLVRTILKNVEEAAK
apparent Kd (screen): 0.446 nM

B7: V102E (designed binder)
chain: SMEEEVEKAAKEYEKKKKEAIEKHLEKLKAKDKEAAERFLKELEEAAKEYAKDEAKTMSEEEAKRRAKKYKEKVLLSELSEEEQKEIKEAEEKLVRTILKYEEEAAK
apparent Kd (screen): 1.4 nM

B8: Y13D (designed binder)
chain: SMEEEVEKAAKEDEKKKKEAIEKHLEKLKAKDKEAAERFLKELEEAAKEYAKDEAKTMSEEEAKRRAKKYKEKVLLSELSEEEQKEIKEAEEKLVRTILKYVEEAAK
apparent Kd (screen): 12.5 nM

B9: Y101I (designed binder)
chain: SMEEEVEKAAKEYEKKKKEAIEKHLEKLKAKDKEAAERFLKELEEAAKEYAKDEAKTMSEEEAKRRAKKYKEKVLLSELSEEEQKEIKEAEEKLVRTILKIVEEAAK
apparent Kd (screen): 0.869 nM

B10: L43V (designed binder)
chain: SMEEEVEKAAKEYEKKKKEAIEKHLEKLKAKDKEAAERFLKEVEEAAKEYAKDEAKTMSEEEAKRRAKKYKEKVLLSELSEEEQKEIKEAEEKLVRTILKYVEEAAK
apparent Kd (screen): 0.869 nM

B11: R38M (designed binder)
chain: SMEEEVEKAAKEYEKKKKEAIEKHLEKLKAKDKEAAEMFLKELEEAAKEYAKDEAKTMSEEEAKRRAKKYKEKVLLSELSEEEQKEIKEAEEKLVRTILKYVEEAAK
apparent Kd (screen): 0.869 nM

B12: Q84P (designed binder)
chain: SMEEEVEKAAKEYEKKKKEAIEKHLEKLKAKDKEAAERFLKELEEAAKEYAKDEAKTMSEEEAKRRAKKYKEKVLLSELSEEEPKEIKEAEEKLVRTILKYVEEAAK
apparent Kd (screen): 22.2 nM

B13: E45R (designed binder)
chain: SMEEEVEKAAKEYEKKKKEAIEKHLEKLKAKDKEAAERFLKELERAAKEYAKDEAKTMSEEEAKRRAKKYKEKVLLSELSEEEQKEIKEAEEKLVRTILKYVEEAAK
apparent Kd (screen): 6.43 nM

B14: S77Q (designed binder)
chain: SMEEEVEKAAKEYEKKKKEAIEKHLEKLKAKDKEAAERFLKELEEAAKEYAKDEAKTMSEEEAKRRAKKYKEKVLLQELSEEEQKEIKEAEEKLVRTILKYVEEAAK
apparent Kd (screen): 1.27 nM

B15: Y50F (designed binder)
chain: SMEEEVEKAAKEYEKKKKEAIEKHLEKLKAKDKEAAERFLKELEEAAKEFAKDEAKTMSEEEAKRRAKKYKEKVLLSELSEEEQKEIKEAEEKLVRTILKYVEEAAK
apparent Kd (screen): 13.8 nM

B16: E103K (designed binder)
chain: SMEEEVEKAAKEYEKKKKEAIEKHLEKLKAKDKEAAERFLKELEEAAKEYAKDEAKTMSEEEAKRRAKKYKEKVLLSELSEEEQKEIKEAEEKLVRTILKYVKEAAK
apparent Kd (screen): 0.446 nM

B17: K56Y (designed binder)
chain: SMEEEVEKAAKEYEKKKKEAIEKHLEKLKAKDKEAAERFLKELEEAAKEYAKDEAYTMSEEEAKRRAKKYKEKVLLSELSEEEQKEIKEAEEKLVRTILKYVEEAAK
apparent Kd (screen): 3.99 nM

B18: A51E (designed binder)
chain: SMEEEVEKAAKEYEKKKKEAIEKHLEKLKAKDKEAAERFLKELEEAAKEYEKDEAKTMSEEEAKRRAKKYKEKVLLSELSEEEQKEIKEAEEKLVRTILKYVEEAAK
apparent Kd (screen): 0.49 nM

B19: E7D (designed binder)
chain: SMEEEVDKAAKEYEKKKKEAIEKHLEKLKAKDKEAAERFLKELEEAAKEYAKDEAKTMSEEEAKRRAKKYKEKVLLSELSEEEQKEIKEAEEKLVRTILKYVEEAAK
apparent Kd (screen): 0.956 nM

B20: E7L (designed binder)
chain: SMEEEVLKAAKEYEKKKKEAIEKHLEKLKAKDKEAAERFLKELEEAAKEYAKDEAKTMSEEEAKRRAKKYKEKVLLSELSEEEQKEIKEAEEKLVRTILKYVEEAAK
apparent Kd (screen): 11.4 nM

B21: A10Y (designed binder)
chain: SMEEEVEKAYKEYEKKKKEAIEKHLEKLKAKDKEAAERFLKELEEAAKEYAKDEAKTMSEEEAKRRAKKYKEKVLLSELSEEEQKEIKEAEEKLVRTILKYVEEAAK
apparent Kd (screen): 13.8 nM

B22: V6K (designed binder)
chain: SMEEEKEKAAKEYEKKKKEAIEKHLEKLKAKDKEAAERFLKELEEAAKEYAKDEAKTMSEEEAKRRAKKYKEKVLLSELSEEEQKEIKEAEEKLVRTILKYVEEAAK
apparent Kd (screen): 1.54 nM

B23: L40R (designed binder)
chain: SMEEEVEKAAKEYEKKKKEAIEKHLEKLKAKDKEAAERFRKELEEAAKEYAKDEAKTMSEEEAKRRAKKYKEKVLLSELSEEEQKEIKEAEEKLVRTILKYVEEAAK
apparent Kd (screen): 0.49 nM

B24: E5N (designed binder)
chain: SMEENVEKAAKEYEKKKKEAIEKHLEKLKAKDKEAAERFLKELEEAAKEYAKDEAKTMSEEEAKRRAKKYKEKVLLSELSEEEQKEIKEAEEKLVRTILKYVEEAAK
apparent Kd (screen): 0.539 nM

B25: R96D (designed binder)
chain: SMEEEVEKAAKEYEKKKKEAIEKHLEKLKAKDKEAAERFLKELEEAAKEYAKDEAKTMSEEEAKRRAKKYKEKVLLSELSEEEQKEIKEAEEKLVDTILKYVEEAAK
apparent Kd (screen): 10.4 nM

B26: A51R (designed binder)
chain: SMEEEVEKAAKEYEKKKKEAIEKHLEKLKAKDKEAAERFLKELEEAAKEYRKDEAKTMSEEEAKRRAKKYKEKVLLSELSEEEQKEIKEAEEKLVRTILKYVEEAAK
apparent Kd (screen): 0.49 nM
